The values below come from paper PMC4721543.

What is called Kd is the free concentration of one partner at which half of the binding sites on the other are occupied at equilibrium, for simple one-to-one binding.

Experiment [1] addresses human VEGF-A165 (human). Briefly: MST; 10 nM NT-647-labelled HGF or VEGF165 with serial dilutions of the unlabelled partner; 22°C, PBS plus 1% BSA; Monolith NT.115.
The target of experiment [2] is human VEGF-A165 (human). Put plainly: fluorescence correlation spectroscopy; as the FCS series, but VEGF165 labelled with NT 647 (Table 1).
Experiment [3] has as its target human VEGF-A165 (human). Put plainly: fluorescence correlation spectroscopy; 1-5 nM ATTO 647N-labelled growth factor with 0.1 nM to 20 μM unlabelled CD44 ectodomain; at least 3 h at room temperature; PBS with 0.05% Tween-20; 20°C; diffusion times fitted with a 1:1 binding model.

With “rat CD44v6 ectodomain, hexahistidine-tagged (from UniProt P26051 22-410) (domain or fragment)”, the Kd stood at 51 nM in the experiment with human VEGF-A165 (human) [1], 200 nM with human VEGF-A165 (human) [2] and 65 nM with human VEGF-A165 (human) [3].
